We go through 67 substances from US20220289816A1, “IMMUNOTHERAPY WITH B*07 RESTRICTED PEPTIDES AND COMBINATION OF PEPTIDES AGAINST CANCERS AND RELATED METHODS” (Immatics Biotechnologies GmbH, priority 2018, published 2022).

The target of this assay is HLA-B*07 (Homo sapiens, UniProt P01889). Nature of the assay: MHC binding assay (UV-ligand exchange, ELISA of stabilized MHC complexes). Particulars: peptide exchange yield on HLA-B*07, UV-ligand exchange. The source says: Candidate peptides for T cell based therapies according to the present invention were further tested for their MHC binding capacity (affinity). The individual peptide-MHC complexes were produced by UV-ligand exchange, where a UV-sensitive peptide is cleaved upon UV-irradiation and exchanged with the peptide of interest as analyzed. Only peptide candidates that can effectively bind and stabilize the peptide-receptive MHC molecules prevent dissociation of the MHC complexes. To determine the yield of the exchange reaction, an ELISA was performed based on the detection of the light chain (β2m) of stabilized MHC complexes. The assay was performed as generally described in Rodenko et al. (Rodenko et al., 2006)
96 well MAXISorp plates (NUNC) were coated over night with 2 ug/ml streptavidin in PBS at room temperature, washed 4× and blocked for 1 h at 37° C. in 2% BSA containing blocking buffer. […] Peptide-MHC monomers of the UV-exchange reaction were diluted 100-fold in blocking buffer. Samples were incubated for 1 h at 37° C., washed four times, incubated with 2 ug/ml HRP conjugated anti-[…] for 1 h at 37° C., washed again and detected with TMB solution that is stopped with […]. Absorption was measured at 450 nm. Candidate peptides that show a high exchange yield (preferably higher than 50%, most preferred higher than 75%) are generally preferred for a generation and production of antibodies or fragments thereof, and/or T cell receptors or fragments thereof, as they show sufficient avidity to the MHC molecules and prevent dissociation of the MHC complexes.
For the substance “72 (APCNGNVAV; listed as Homo sapiens) [compound 72]”, the Peptide exchange result is “+++ (>50 = +++)”.

Turning to “187 (APPPPPPPF; listed as Homo sapiens) [compound 187]”, the Peptide exchange result was “++++ (>75% = ++++)”. In the case of “498 (RPQPQPRPAL; listed as Homo sapiens) [compound 498]”, the Peptide exchange result is “++++ (>75% = ++++)”. With “22 (LPQLKPAL; listed as Homo sapiens) [compound 22]” the entry was “++++ (>75% = ++++)”; with “192 (IPFADVKSF; listed as Homo sapiens) [compound 192]”, “++ (>20% = ++)”. With “290 (RPTHPLRSF; listed as Homo sapiens) [compound 290]”, the Peptide exchange entry was “++++ (>75% = ++++)”. Take “71 (APFAPLHGGGSL; listed as Homo sapiens) [compound 71]”: the Peptide exchange entry is “+++ (>50 = +++)”. Consider “303 (RPPPPCIAL; listed as Homo sapiens) [compound 303]”, for which the Peptide exchange result is reported as “++++ (>75% = ++++)”. Take “276 (RPVWDVRSA; listed as Homo sapiens) [compound 276]”: the Peptide exchange entry was “++++ (>75% = ++++)”. Consider “83 (AVSSHHNVI; listed as Homo sapiens) [compound 83]”, for which the Peptide exchange entry is recorded as “++ (>20% = ++)”. In the case of “265 (FPRKPYEGRV; listed as Homo sapiens) [compound 265]”, the Peptide exchange entry was “+++ (>50 = +++)”. For the substance “323 (TPHGITDIL; listed as Homo sapiens) [compound 323]”, the Peptide exchange result is reported as “++++ (>75% = ++++)”. As for “211 (IPDTIASVL; listed as Homo sapiens) [compound 211]”, the Peptide exchange result is on record as “+++ (>50 = +++)”. Consider “499 (QPVLPSPAC; listed as Homo sapiens) [compound 499]”, for which the Peptide exchange result is recorded as “++++ (>75% = ++++)”. “377 (SPFSKRIKL; listed as Homo sapiens) [compound 377]”: the Peptide exchange result is recorded as “+++ (>50 = +++)”. Take “214 (LPLKFFPII; listed as Homo sapiens) [compound 214]”: the Peptide exchange entry is listed as “+ (>10% = +)”. Consider “80 (SALPTTISF; listed as Homo sapiens) [compound 80]”, for which the Peptide exchange result is on record as “+++ (>50 = +++)”.

Turning to “201 (LPIARVLTV; listed as Homo sapiens) [compound 201]”, the Peptide exchange result is recorded as “++++ (>75% = ++++)”. “331 (SPDSAILKL; listed as Homo sapiens) [compound 331]”: the Peptide exchange entry is “+++ (>50 = +++)”.

Consider “278 (LIAARGSLVL; listed as Homo sapiens) [compound 278]”, for which the Peptide exchange entry is on record as “+++ (>50 = +++)”. With “50 (PEKARAFL; listed as Homo sapiens) [compound 50]” the entry was “+++ (>50 = +++)”; with “172 (SAQSLHPVL; listed as Homo sapiens) [compound 172]”, “+++ (>50 = +++)”; with “164 (RAAGRRLQL; listed as Homo sapiens) [compound 164]”, “++++ (>75% = ++++)”. For the substance “463 (LPTDLFNSVM; listed as Homo sapiens) [compound 463]”, the Peptide exchange result is recorded as “++++ (>75% = ++++)”. The result for “186 (VPLPAGGGTVLT; listed as Homo sapiens) [compound 186]” reads “+ (>10% = +)”; that for “84 (MPMQDIKMI; listed as Homo sapiens) [compound 84]”, “+++ (>50 = +++)”.

As to “114 (FVPPSGPSNPM; listed as Homo sapiens) [compound 114]”, the Peptide exchange result is listed as “++ (>20% = ++)”. With “287 (SPIPRPLFL; listed as Homo sapiens) [compound 287]” the entry was “++++ (>75% = ++++)”. In the case of “40 (FPRTVKHIDAAL; listed as Homo sapiens) [compound 40]”, the Peptide exchange result is “++++ (>75% = ++++)”. On to “262 (SPSTSRTPLLSSL; listed as Homo sapiens) [compound 262]”, for which the Peptide exchange result is on record as “++++ (>75% = ++++)”. The result for “234 (HPRAPGEQQRL; listed as Homo sapiens) [compound 234]” reads “+++ (>50 = +++)”.

In the case of “264 (APRPGNWIL; listed as Homo sapiens) [compound 264]”, the Peptide exchange result is “+++ (>50 = +++)”. Take “32 (APMAPGRSPL; listed as Homo sapiens) [compound 32]”: the Peptide exchange entry was “++++ (>75% = ++++)”. Take “309 (FAFYGGKSL; listed as Homo sapiens) [compound 309]”: the Peptide exchange result is reported as “+++ (>50 = +++)”. Take “356 (RPFLRLPSL; listed as Homo sapiens) [compound 356]”: the Peptide exchange entry is “+++ (>50 = +++)”. As for “251 (MPVDSFNSM; listed as Homo sapiens) [compound 251]”, the Peptide exchange entry was “++++ (>75% = ++++)”. The result for “160 (IPVSHPVLTF; listed as Homo sapiens) [compound 160]” reads “++ (>20% = ++)”; that for “39 (QPRPSSEKI; listed as Homo sapiens) [compound 39]”, “+++ (>50 = +++)”. As for “302 (IPIDQILNSF; listed as Homo sapiens) [compound 302]”, the Peptide exchange entry is “+++ (>50 = +++)”. The result for “230 (DVIDDIISL; listed as Homo sapiens) [compound 230]” reads “++++ (>75% = ++++)”; that for “238 (LPRAGGAFLM; listed as Homo sapiens) [compound 238]”, “++++ (>75% = ++++)”. Turning to “153 (QPVHSLCSA; listed as Homo sapiens) [compound 153]”, the Peptide exchange entry is listed as “++++ (>75% = ++++)”. Consider “245 (GPVPSPLAL; listed as Homo sapiens) [compound 245]”, for which the Peptide exchange entry is listed as “++++ (>75% = ++++)”. For “165 (RPSKEMQVTI; listed as Homo sapiens) [compound 165]”, the Peptide exchange entry is given as “++++ (>75% = ++++)”. “167 (NVNPARKGL; listed as Homo sapiens) [compound 167]”: the Peptide exchange entry is “++++ (>75% = ++++)”. Regarding “375 (LPRGVLEGL; listed as Homo sapiens) [compound 375]”, the Peptide exchange entry is given as “++++ (>75% = ++++)”. On to “217 (SPGDKRLAAYL; listed as Homo sapiens) [compound 217]”, for which the Peptide exchange entry is given as “+++ (>50 = +++)”. On to “337 (IPTSRVITL; listed as Homo sapiens) [compound 337]”, for which the Peptide exchange result is reported as “++++ (>75% = ++++)”.

Take “355 (APKTSFIAA; listed as Homo sapiens) [compound 355]”: the Peptide exchange result was “++++ (>75% = ++++)”. For “112 (YPSPLNKHSF; listed as Homo sapiens) [compound 112]”, the Peptide exchange result is listed as “+++ (>50 = +++)”. “127 (KSKQVITLL; listed as Homo sapiens) [compound 127]”: the Peptide exchange result is “+ (>10% = +)”. In the case of “261 (SPSTSRTPL; listed as Homo sapiens) [compound 261]”, the Peptide exchange result is listed as “+++ (>50 = +++)”. As for “197 (RPSGTAGAALLA; listed as Homo sapiens) [compound 197]”, the Peptide exchange result is recorded as “++ (>20% = ++)”. With “308 (RPDVVRTLL; listed as Homo sapiens) [compound 308]” the entry was “++++ (>75% = ++++)”. For “243 (MARTGGMVVI; listed as Homo sapiens) [compound 243]”, the Peptide exchange result is given as “++ (>20% = ++)”.

On to “373 (LPKPDLPQLI; listed as Homo sapiens) [compound 373]”, for which the Peptide exchange result is “+ (>10% = +)”. With “27 (RIRVTSEVL; listed as Homo sapiens) [compound 27]” the entry was “+++ (>50 = +++)”; with “274 (KPIRTGISPLAL; listed as Homo sapiens) [compound 274]”, “+++ (>50 = +++)”.

For the substance “338 (MPATPSLKV; listed as Homo sapiens) [compound 338]”, the Peptide exchange entry is “+++ (>50 = +++)”. With “340 (APEPRAALL; listed as Homo sapiens) [compound 340]” the entry was “+++ (>50 = +++)”; with “150 (APLHGGGSL; listed as Homo sapiens) [compound 150]”, “+++ (>50 = +++)”. With “453 (APALPGQVTI; listed as Homo sapiens) [compound 453]” the entry was “++++ (>75% = ++++)”; with “286 (APARPAAAF; listed as Homo sapiens) [compound 286]”, “++++ (>75% = ++++)”.

“370 (AAHEFGHVL; listed as Homo sapiens) [compound 370]”: the Peptide exchange entry is on record as “++ (>20% = ++)”. “237 (LPRAGGAF; listed as Homo sapiens) [compound 237]”: the Peptide exchange entry is “++++ (>75% = ++++)”. With “70 (VPAQRLGLL; listed as Homo sapiens) [compound 70]” the entry was “++++ (>75% = ++++)”. The result for “16 (FPAPPAHWF; listed as Homo sapiens) [compound 16]” reads “++++ (>75% = ++++)”.
